Results as given in US8318640B2, “Methods for selective targeting” (Danisco US Inc., priority 2000, dated 2012).
Square brackets hold non-standard residues; d marks the D form. Ends that are not written are not given here. 14C‑Gly = 14C-labelled glycine

How the values were obtained:
(h) TNF-α [1] = biological target: T1, (h) TNF-α (Homo sapiens, UniProt P01375); assay: Selective targeting of a phage-displayed 7-mer library on TNF-α, PCR identification of bound clones; format: binding; parameters: purchased BioSource International; Camarillo, Calif; conditions: number of multiple times this amino acid sequence occurred out of 24 clones sequenced; binds TNF-alpha and not SuperBlock
Procedure: A thin-walled PCR tube was coated with the target human (h) TNF-α (BioSource International; Camarillo, Calif.) by incubating 100 μl of 0.5 mg/ml purified TNF-α in PBS overnight at 4° C. in the PCR tube. Excess unbound TNF-α was removed, and the tube was coated overnight at 4° C. with 100 μl of SuperBlock™ blocking buffer (Pierce: Rockford, Ill.) in Tris buffered saline (TBS). The anti-target (SuperBlock™ blocking buffer) was prepared in separate PCR tubes coated overnight at 4° C. with 100 μl of SuperBlock™.
Unbound phage were removed by washing the tube 5 times with 150 μl PBS containing 0.1% Tween-20 at room temperature. Low affinity binders were washed away by incubating with 60 μl of 0.2 M Glycine (pH 2.2) for 6 minutes followed by neutralization with 9 μl 1 M Tris-Cl (pH 9.1). The acid washed population was retained for further analysis. The tube was then washed again 3 times with 150 μl of PBS.
To the remaining phage-peptides bound to the TNF-α, 54 μl of Lysis Buffer A (10 mM Tris-Cl, pH 8.4, 0.1% Triton-X100) and an AmpliWax™ PCR gem (Perkin Elmer, Norwalk, USA.) was added. The tube was heated at 95° C. for 15 min and then allowed to cool. The following PCR reagents were then added:
PCR amplification was performed using 20 cycles of denaturation at 94° C. for 15 sec, annealing at 55° C. for 20 sec, and extension at 72° C. for 30 sec. The sequences of the primers (synthesized by GIBCO BRL) were: […]
The PCR product (267 base pairs (bp)) was analyzed on an 8% polyacrylamide gel along with the PCR product from a single phage peptide clone (positive control) and molecular weight markers (FIG. 2). […] This was due to too much template (i.e. phage) in the PCR reaction, and can be alleviated by decreasing the phage concentration or by decreasing the number of PCR cycles (FIG. 3). To decrease the amount of the 500-700 bp diffuse band, the PCR product was diluted appropriately for subsequent PCR reactions from this starting material to generate more products for sub-cloning purposes. Once the desired product (267 bp) was amplified, it was digested with Eagl and Acc651 restriction endonucleases to produce a 45 bp fragment containing the DNA coding for the random peptide. The 45 bp fragment was then sub-cloned into the M13KE vector (New England Biolabs; Beverly, Mass.) at the EagI and Acc65I restriction sites using standard techniques (Sambrook, et al., (1989) supra). After ligating the 45 bp fragment into the M13KE vector, the ligation reaction was transformed into chemically competent ER2537 E. coli cells. The cells were made competent with calcium chloride using a standard protocol (Sambrook, et al., (1989) supra). The M13 DNA was isolated from various transformants using a modified protocol from New England Biolab's protocol for M13 DNA preparation and then sequenced. The modification includes the use of 96-well plates as opposed to tubes.

[2] = ELISA of biotinylated peptide binding to skin; parameters: species or system human; conditions: 200 μM biotinylated peptide in 2% body wash; FIG. 9
Excerpt: (§1) Peptide sequences identified in Examples 13 and 14 along with a random control peptide were C-terminally labeled with the sequence GGGK (biotin). The sequence LESTPKMK (SEQ ID NO: 115) contains the consensus sequence LEST and was isolated on hair. FTQSLPR (SEQ ID NO: 116) contains the consensus sequence TQSL and was isolated on skin. YGGFMTSE (SEQ ID NO: 117) is a control peptide.
(§2) Dark brown hair (3″ long, 4 each), moistened with 2% body wash and pre-equilibrated human skin tissues, were placed in the wells of a 24 well plate. 1 ml of a 200 μM solution of the biotinylated peptide in 2% Neutrogena body wash was added to the hair and skin samples and incubated 30 min at room temperature with gentle agitation. The solution was then pipetted off and the hair and skin samples transferred with clean tweezers to a 50 ml conical tube, washed once with 50 ml of 2% body wash, twice with 50 ml of water, and once with 50 ml of PBS; each wash step took 5 min and was performed on a rotary shaker at 20 rpm. The hair and skin samples were then transferred with clean tweezers to a fresh 24 well plate where 1 ml of streptavidin conjugated horseradish peroxidase (diluted 1/1000 in PBS) was added for 1 hr at room temperature under gentle rocking. Excess streptavidin HRP was removed by washing twice with 50 ml of PBS (5 min, 20 rpm each) in a 50 mL conical tube. […]

[3] = Ni-chelated peptide binding to collar soil on cotton or cotton alone, OPD/H2O2 absorbance assay
Procedure: A phage peptide sequence HTFQHQWTHQTR, (SEQ ID NO: 27) that binds to collar soil on cotton was identified after five rounds of biopanning as described in example 5 except that phage peptides were eluted by acid after each round using the methods described in Scott and Smith (1990) Science 249:386. The selectivity (stain vs. cotton binding) and affinity (koff) were measured for the corresponding peptide binding to collar soil as follows: A 1 mM solution of Ni chelated GGHTFQHQWTHQTR (SEQ ID NO: 28) was incubated with collar soil on cotton or cotton alone for 90 minutes at room temperature with shaking in a microtiter plate. A control peptide chelate Ni GGH was also tested under the same conditions. After pipeting off the incubation solution from the well, fabric swatches were rinsed in 200 μL water with shaking for 3 minutes. The residual bound peptide was assayed by adding 200 μL o-phenylenediamine (OPD) and 50 μL of 100 mM H2O2 and measuring the absorbance of the oxidized OPD at 420 nm. As summarized in Table 5 and FIG. 7, the selectivity ratio of stain binding to fabric is less than or equal to ≦3:1 and the affinity as measured by koff=1×10^−3 sec^−1.

[4] = Release of 14C-labeled peptide from collar soil on polyester cotton in Tide detergent, scintillation counting; format: binding
Procedure: Soiled shirt collars (65% polyester: 35% cotton) containing the target (collar soil) and anti-target along with the control anti-target (unstained polyester:cotton from the same shirt) were cut to a diameter of 7/32″ and placed into a 96-well microtiter plate (Millipore Corp., […] Durapore membrane; Cat. No. MAGV N22 50). Serial dilutions of a 400 μM stock solution of a soil targeting peptide SISSTPRSYHWT (SEQ ID NO: 20) and a peptide control NFFPTWILPEHT (SEQ ID NO: 78) both terminally labelled with ^14C-glycine were added to 1 g/L Tide detergent solutions (Procter and Gamble, Cincinnati, Ohio) and 60 μL aliquots were placed into the wells of the microtiter plate. The plate was incubated with shaking for 30 minutes at 32° C. followed by suction filtering of excess unbound radiolabeled peptide (Vacuum manifold; Millipore Corp. Cat. No. MAVM 096 OR). The samples were rinsed three times with 200 μL of distilled water, with shaking in between rinses, over a period of about 40 minutes. The remaining radioactivity bound to the samples was quantitated by liquid scintillation counting in a Wallac microbeta counter. […] This corresponds to a rate constant for release of the soil targeting peptide koff≦2×10^−4 sec^−1.

[5] = ELISA of biotinylated peptide binding to hair; parameters: species or system human; conditions: 200 μM biotinylated peptide in 2% body wash; FIG. 9
Excerpt: as §1, §2

(h) TNF-α [6] = biological target: T1, (h) TNF-α; assay: IAsys biosensor binding and dissociation of phage clone on immobilized TNF-α
Procedure: The binding and dissociation of phage clone A1, amino acid sequence: RYWQDIP; Table 1, (SEQ ID NO: 3) to TNF-α was monitored using an IAsys AutoPlus Biosensor following the Labsystems Affinity Sensors IAsys Protocol 2.4 ‘Immobilization to Protein Layer: Thiol coupling to avidin’ (Thermo BioAnalysis Corp. Franklin, Mass.). Two cuvettes were first coated with avidin and one (the control) was then blocked with biotin. This was followed by activation of the lysine groups. A 15 μl aliquot of a 1 mg/ml (h) TNF-α solution was added to each cuvette. […] After blocking and washing, phage clone A1, RYWQDIP (SEQ ID NO: 3) was added to give a final titer of 5×10^11 pfu/ml.
The dissociation of the phage from the TNF-α is very slow with the dissociation constant estimated as koff<10^−4 sec^−1 (10 mM HEPES/0.05% Tween). Washing with a 10× buffer concentrate (at the 70 min time point) only removed a small portion of the phage.

T1 sequence (P01375 77-233 limits assumed): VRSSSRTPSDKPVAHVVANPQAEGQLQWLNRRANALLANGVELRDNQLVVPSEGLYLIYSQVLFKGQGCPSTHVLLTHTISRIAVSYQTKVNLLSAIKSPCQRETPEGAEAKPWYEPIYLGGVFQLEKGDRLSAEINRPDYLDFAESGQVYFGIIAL

“APEPILA (peptides screened from a phage display random peptide library) [Clone T2]” gave a Frequency ((h) TNF-α [1]) of 7.

Work on “ASTVGGL (peptides screened from a phage display random peptide library) [Clone T6]” yielded a Frequency ((h) TNF-α [1]) of 2.

Work on “ATFPNQS (peptides screened from a phage display random peptide library) [Clone T5]” yielded a Frequency ((h) TNF-α [1]) of 2.

“DMIMVSI (peptides screened from a phage display random peptide library) [Clone T3]” gave a Frequency ((h) TNF-α [1]) of 3.

With “FTQSLPR (peptides screened from a phage display random peptide library)” the “ELISA binding to skin versus hair” value [2] was “selectively targets skin and not hair”.

In the case of “GGHTFQHQWTHQTR (peptides screened from a phage display random peptide library)”, the koff ([3]; Ni-chelated peptide, dissociation from collar soil and the corresponding cotton fabric) is reported as 0.001 s⁻¹ and the “Affinity 10^−4 koff (sec^−1)” value ([3]; Table 5, Biopanning, 5 rounds of selection) is reported as 10 10^−4 sec^−1.

With GSISSTPRSYHWT ([14C‑Gly]SISSTPRSYHWT) the “Affinity 10^−4 koff (sec^−1)” value ([4]; Table 5, Selective Targeting (PCR), 1 round of selection) was “≦ 2 10^−4 sec^−1”.

With “LESTPKMK (peptides screened from a phage display random peptide library)” the “ELISA binding to hair” value [5] was “binds to hair”.

In the case of “NFFPTWILPEHT (peptides screened from a phage display random peptide library) [random peptide control, reference compound]”, the “affinity or selectivity for stained fabric” value ([4]; 1 g/L Tide, same assay, FIG. 6B) is reported as “no affinity or selectivity”.

For “RYWQDIP (peptides screened from a phage display random peptide library) [Clone T1]”, the “koff (dissociation of the phage from the TNF-α)” value ((h) TNF-α [6]; 10 mM HEPES/0.05% Tween) was < 10^−4 sec^−1, the “binding of phage to immobilized TNF-α” value ((h) TNF-α [6]; IAsys cuvette, final titer 5×10^11 pfu/ml) was “significant binding” and the Frequency ((h) TNF-α [1]) was 8.

With “SISSTPRSYHWT (peptides screened from a phage display random peptide library) [Clone C4]” the “total radiolabel remaining bound to the stained fabric” value ([4]; 1 g/L Tide, after rinsing for 40 minutes) was “greater than 50%” and the “koff, rate constant for release of the soil targeting peptide” value ([4]; 1 g/L Tide, collar soil on polyester cotton) was at most 0.0002 s⁻¹.

Work on “TMLPYRP (peptides screened from a phage display random peptide library) [Clone T7]” yielded a Frequency ((h) TNF-α [1]) of 2.

Work on “WTPKPTQ (peptides screened from a phage display random peptide library) [Clone T4]” yielded a Frequency ((h) TNF-α [1]) of 2.
